Reference: patent publication US20260146107A1 (ALLIGATOR BIOSCIENCE, published 2026)

T1: human CEACAM5, recombinant (R&D Systems #4128-CM-050) (human, UniProt P06731 35-685)
T1 construct: Bought; coated in ELISA and used as monomeric analyte in Octet; also called hCEACAM-5; Human CEACAM5-His; not shown: His tag
T1 sequence (looked up): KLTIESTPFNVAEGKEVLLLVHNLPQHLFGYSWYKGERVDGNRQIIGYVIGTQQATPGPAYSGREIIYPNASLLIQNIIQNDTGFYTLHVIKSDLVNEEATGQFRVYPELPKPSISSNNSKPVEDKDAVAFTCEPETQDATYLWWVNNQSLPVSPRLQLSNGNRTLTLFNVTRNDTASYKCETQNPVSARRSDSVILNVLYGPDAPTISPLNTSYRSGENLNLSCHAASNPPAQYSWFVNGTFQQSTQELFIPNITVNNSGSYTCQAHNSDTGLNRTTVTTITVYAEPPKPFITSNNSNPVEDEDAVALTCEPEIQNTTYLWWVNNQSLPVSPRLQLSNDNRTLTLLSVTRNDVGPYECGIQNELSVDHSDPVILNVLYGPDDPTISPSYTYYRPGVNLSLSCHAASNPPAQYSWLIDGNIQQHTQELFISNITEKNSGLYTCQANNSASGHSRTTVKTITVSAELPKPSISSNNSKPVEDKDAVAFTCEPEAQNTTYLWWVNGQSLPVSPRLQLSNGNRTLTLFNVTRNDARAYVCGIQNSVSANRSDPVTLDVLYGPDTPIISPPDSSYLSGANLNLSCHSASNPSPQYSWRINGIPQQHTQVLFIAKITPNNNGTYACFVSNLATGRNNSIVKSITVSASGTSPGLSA

T2: human CEACAM1 expressed on CHO cells (human, UniProt P13688 35-526)
T2 construct: whole, on cells; also called CHO-CEACAM1; CEACAM1 on cells
T2 sequence (looked up): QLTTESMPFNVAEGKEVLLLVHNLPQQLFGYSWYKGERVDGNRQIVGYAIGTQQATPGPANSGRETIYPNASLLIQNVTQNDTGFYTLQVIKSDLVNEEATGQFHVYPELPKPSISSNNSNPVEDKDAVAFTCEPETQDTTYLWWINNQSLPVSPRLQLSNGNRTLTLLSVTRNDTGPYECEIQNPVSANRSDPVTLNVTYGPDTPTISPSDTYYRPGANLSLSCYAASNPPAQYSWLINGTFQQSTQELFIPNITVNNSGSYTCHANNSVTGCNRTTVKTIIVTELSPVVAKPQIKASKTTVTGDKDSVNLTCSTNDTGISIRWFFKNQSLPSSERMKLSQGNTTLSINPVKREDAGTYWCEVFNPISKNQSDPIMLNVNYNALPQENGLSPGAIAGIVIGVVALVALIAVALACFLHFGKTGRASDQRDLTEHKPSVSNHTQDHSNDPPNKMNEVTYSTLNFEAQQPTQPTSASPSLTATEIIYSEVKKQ

T3: human CEACAM1, recombinant (R&D Systems #2244-CM-050) (human, UniProt P13688 35-428)
T3 construct: also called hCEACAM-1
T3 sequence (looked up): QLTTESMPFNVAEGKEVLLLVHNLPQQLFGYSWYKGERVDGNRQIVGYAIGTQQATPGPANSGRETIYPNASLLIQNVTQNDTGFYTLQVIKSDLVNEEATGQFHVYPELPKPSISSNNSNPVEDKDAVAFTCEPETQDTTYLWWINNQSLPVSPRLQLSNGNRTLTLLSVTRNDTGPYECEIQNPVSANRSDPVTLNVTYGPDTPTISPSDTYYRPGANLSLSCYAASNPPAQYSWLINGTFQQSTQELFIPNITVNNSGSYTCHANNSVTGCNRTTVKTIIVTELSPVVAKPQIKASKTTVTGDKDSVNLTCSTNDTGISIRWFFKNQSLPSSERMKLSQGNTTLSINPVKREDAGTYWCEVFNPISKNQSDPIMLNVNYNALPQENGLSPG

T4: human CEACAM6, recombinant (R&D Systems #3934-CM-050) (human, UniProt P40199 35-320)
T4 construct: also called hCEACAM-6
T4 sequence (looked up): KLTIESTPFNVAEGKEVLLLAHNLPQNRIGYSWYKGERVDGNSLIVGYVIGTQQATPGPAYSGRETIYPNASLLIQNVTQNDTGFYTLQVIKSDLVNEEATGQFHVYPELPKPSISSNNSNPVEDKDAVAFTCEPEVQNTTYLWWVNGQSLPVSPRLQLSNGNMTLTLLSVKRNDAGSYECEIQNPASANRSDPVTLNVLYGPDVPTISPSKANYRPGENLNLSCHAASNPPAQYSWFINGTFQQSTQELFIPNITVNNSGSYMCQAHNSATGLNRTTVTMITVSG

T5: CEACAM-8, recombinant (R&D Systems #9639-CM-050) (UniProt P31997 35-320)
T5 sequence (looked up): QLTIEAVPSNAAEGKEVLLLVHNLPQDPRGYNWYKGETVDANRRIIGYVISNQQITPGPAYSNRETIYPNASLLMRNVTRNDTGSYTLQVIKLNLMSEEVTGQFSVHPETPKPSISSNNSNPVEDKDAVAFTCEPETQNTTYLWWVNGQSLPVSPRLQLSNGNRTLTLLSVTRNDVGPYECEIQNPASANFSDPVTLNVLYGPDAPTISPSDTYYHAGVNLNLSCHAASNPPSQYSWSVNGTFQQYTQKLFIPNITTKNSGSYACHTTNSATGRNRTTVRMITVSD


How the values were obtained:
[1] = target: T1, human CEACAM5, recombinant (R&D Systems …); test: ELISA, antigen coated at 0.5 µg/mL, bsAb titrated, anti-human kappa-HRP, luminescence
Method: (§1) 96-well plates were coated with 0.5 μg/mL antigen, hCEACAM-1 (2244-CM-050, R&D Systems), hCEACAM-5 (4128-CM-050, R&D Systems), hCEACAM-6 (3934-CM-050, R&D Systems) or CEACAM-8 (9639-CM-050, R&D Systems) in PBS over night at 4° C. After washing in PBS/0.05% Tween 20 (PBST), the plates were blocked with PBST, 2% BSA for at least 30 minutes at room temperature before a second round of washing. RUBY bsAbs, diluted in PBST, 0.5% BSA, were then added and allowed to bind for at least 1 hour at room temperature. […] Finally, a final round of washing was performed and bound complexes detected using SuperSignal Pico Luminescent as substrate and luminescence signals were measured using Fluostar Optima.

[2] = target: T1, human CEACAM5, recombinant (R&D Systems …); test: dual-target ELISA: hCEACAM-5 coated, bsAb titrated, detected with biotinylated hCD40-muIg and streptavidin-HRP, luminescence; signal needs both targets bound
Method: as §1

[3] = target: T6, biotinylated human CD40-mouse Fc (Ancell #504-030) (human, UniProt P25942 21-193, biotinylated (site not stated)); test: as above
T6 construct: Bought; also called hCD40-muIg; CD40mFc-biotin; not shown: mouse Ig Fc
Method: as §1

[4] = target: T2, human CEACAM1 expressed on CHO cells; test: flow cytometry, transfected CHO cells, IgG1
Excerpt: Binding of the antibodies was detected using fluorochrome-conjugated anti-human IgG and analysed using flow cytometry.

[5] = target: T3, human CEACAM1, recombinant (R&D Systems …); test: ELISA, cross-reactivity to other CEA family members
Method: (§2) 96-well plates were coated with 0.5 μg/mL antigen, hCEACAM-5 (4128-CM-050, R&D Systems), hCEACAM-1 (2244-CM-050, R&D Systems), hCEACAM-6(3934-CM-050, R&D Systems) or CEACAM-8 (9639-CM-050, R&D Systems) in PBS over night at 4° C. After washing with PBS/0.05% Tween 20 (PBST), the plates were blocked with PBST, 2% BSA for at least 30 minutes at room temperature before a second round of washing. […] After washing, plates were incubated with 50 μl detection antibody (0.5 μg/ml HRP conjugated goat anti human-kappa light chain, #STAR127P, AbD Serotec). Finally, a final round of washing was performed and bound complexes detected using SuperSignal Pico Luminescent as substrate and luminescence signals were measured using Fluostar Optima.

[6] = target: T4, human CEACAM6, recombinant (R&D Systems …); test: as above
Method: as §2

[7] = target: T5, CEACAM-8, recombinant (R&D Systems …); test: as above
Method: as §2

[8] = target: T1, human CEACAM5, recombinant (R&D Systems …); test: Octet BLI, IgG1 captured on AHC tips, CEACAM5-His in solution, 1:1 fit
Method: Kinetic measurements were performed in the Octet RED96 platform using several different setups. Monoclonal antibodies (listed in Table 9), serially diluted ½ starting at 100 nM, were captured to anti human IgG Fc Capture (AHC) Biosensor tips (Sartorius #18-5060). Human CEACAM5-His (R&D Systems #4128-CM-050) diluted in 1× kinetic buffer (Sartorius) at 100 nM was then added. Binding kinetics was studied in 1× kinetic buffer where association was allowed for 300 sec followed by dissociation for 600 sec. Sensor tips were regenerated with 10 mM Glycine pH 1.7. Data generated were referenced by subtracting blank or parallel buffer blank, the baseline was aligned to the y-axis, inter-step correction by alignment against dissociation was performed and the data was smoothed by Savitzky-Golay filter in the data analysis software (v9.0.0.14). The processed data was fitted using a 1:1 Langmuir binding model with R² or X² as a measurement of fitting accuracy.

T6 sequence (P25942 21-193): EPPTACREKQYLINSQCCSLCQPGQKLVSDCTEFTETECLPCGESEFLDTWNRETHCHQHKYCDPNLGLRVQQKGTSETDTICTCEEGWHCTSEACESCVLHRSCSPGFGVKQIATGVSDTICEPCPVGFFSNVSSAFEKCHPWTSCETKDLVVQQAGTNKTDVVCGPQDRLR

Binder | EC50 (read off the curve) [1] [nM] | EC50 (read off the curve) [2] [nM] | binding result [3] | binding result [4] | binding result [5] | binding result [6] | binding result [7] | Kd [8] [nM] | koff [8] [s⁻¹] | kon [8] [M⁻¹ s⁻¹]
Multi39 (bispecific antibody, Optimised RUBY format, CD40xCEACAM5; copies: 2 + 2 + 2) heavy 1: not shown light: not shown heavy 2: EVQLLESGGGLVQPGGSLRLSCAASGFTFYDHAMSWVREAPGKGLEWVSAISGSYGSTGYADSVKGRFTISRDNSKNTLYLQMNSLRAEDTAVYYCARWGGWAGDIDYWGQGTLVTVSSASTKGPSVFPLAPSSKSTSGGTAALGCLVKDYFPEPVTVSWNSGALTSGVHTFPAVLQSSGLYSLTSVVEVPSSSLGTQTYICNVNHKPSNTKVDKKVEPKSC | ~1 | ~3 | binds | – | – | – | – | – | – | –
AC_05060 (antibody, human IgG1, kappa, V domains shown) VH: EVQLLESGGGLVQPGGSLRLSCAASGFTFGSYYMSWVRQAPGKGLEWVSGISGYGYYTGYADSVKGRFTISRDNSKNTLYLQMNSLRAEDTAVYYCARHGYGVIDYWGQGTLVTVSS VL: DIQMTQSPSSLSASVGDRVTITCRASQSIRDYLNWYQQKPGKAPKLLIYAASSLQSGVPSRFSGSGSGTDFTLTISSLQPEDFATYYCQQGTFPFTFGQGTKLEIKR | – | – | – | no binding (tested: 0.5 and 5 µg/ml) | no binding (tested: 0.4 µg/ml) | no binding (tested: 0.4 µg/ml) | no binding (tested: 0.4 µg/ml) | 6 | 0.002 | 400000
AC_05061 (antibody, human IgG1, kappa, V domains shown) VH: not shown VL: DIQMTQSPSSLSASVGDRVTITCRASQSISSYLNWYQQKPGKAPKLLIYAASSLQSGVPSRFSGSGSGTDFTLTISSLQPEDFATYYCQQGAYVPYTFGQGTKLEIKR | – | – | – | no binding (tested: 0.5 and 5 µg/ml) | no binding (tested: 0.4 µg/ml) | no binding (tested: 0.4 µg/ml) | no binding (tested: 0.4 µg/ml) | 20 | 0.002 | 100000
AC_05062 (antibody, human IgG1, kappa, V domains shown) VH: not shown VL: DIQMTQSPSSLSASVGDRVTITCRASQAISGYLNWYQQKPGKAPKLLIYSASSLQSGVPSRFSGSGSGTDFTLTISSLQPEDFATYYCQQSYSTPYTFGQGTKLEIKR | – | – | – | no binding (tested: 0.5 and 5 µg/ml) | no binding (tested: 0.4 µg/ml) | no binding (tested: 0.4 µg/ml) | no binding (tested: 0.4 µg/ml) | 0.9 | 0.002 | 2e+06
AC_05064 (antibody, human IgG1, kappa, V domains shown) VH: not shown VL: DIQMTQSPSSLSASVGDRVTITCRASQSISSYLNWYQQKPGKAPKLLIYAASSLQSGVPSRFSGSGSGTDFTLTISSLQPEDFATYYCQQYPWYFPYTFGQGTKLEIKR | – | – | – | no binding (tested: 0.5 and 5 µg/ml) | no binding (tested: 0.4 µg/ml) | no binding (tested: 0.4 µg/ml) | no binding (tested: 0.4 µg/ml) | 0.4 | 6e-05 | 100000
